Our source for the Kd values is the Immune Epitope Database (IEDB).

By Kd is commonly meant the equilibrium constant for the complex coming apart.

Test in all cases: IEDB peptide-MHC binding, purified MHC/competitive/radioactivity; filed as Kd, often an IC50 or EC50 that approximates it; ≥ and ≤ were set here for values at or beyond the usual limits of such assays
For test [1], the target named is HLA-A*68:01.
The target of test [2] is HLA-A*11:01.
Test [3] concerns the target HLA-A*03:01.
Test [4] concerns the target HLA-A*33:01.
Test [5] deals with HLA-A*31:01.
Where [6] appears, read: source organism: Mammarenavirus guanaritoense.
Setting [7] is: source organism: Vaccinia virus WR.
The mark [8] stands for this setting: source organism: SARS coronavirus Tor2.
The mark [9] stands for this setting: source organism: Mammarenavirus machupoense.
The mark [10] stands for this setting: source organism: Mammarenavirus brazilense.

With LCCSLDHSK, the Kd in test [1] (setting [6]) was at least 32700 nM; in test [2] (setting [6]), at least 38400 nM; in test [3] (setting [6]), at least 33700 nM; in test [4] (setting [6]), 7340 nM; in test [5] (setting [6]), 811 nM.

For the sequence LFIDRGSIK, the Kd worked out at 1290 nM in test [1] (setting [7]); 14300 nM in test [2] (setting [7]); 1720 nM in test [3] (setting [7]); 1110 nM in test [4] (setting [7]); 2140 nM in test [5] (setting [7]).

On to LIMFEQYFIY, for which the Kd in test [1] (setting [7]) worked out at 1720 nM; in test [2] (setting [7]) it was 134 nM; in test [3] (setting [7]) it was 1030 nM; in test [4] (setting [7]) it was 8190 nM; in test [5] (setting [7]), 14000 nM.

For the sequence LLDSYFVVK, the Kd in test [1] (setting [8]) came to 2060 nM; in test [2] (setting [8]), 47.2 nM; in test [3] (setting [8]), 40.3 nM; in test [4] (setting [8]) it was 12700 nM; in test [5] (setting [8]), 1270 nM.

On to LLFVVEVVDK, for which the Kd in test [1] (setting [8]) is 1330 nM; in test [2] (setting [8]) it was 3050 nM; in test [3] (setting [8]) it was 4390 nM; in test [4] (setting [8]), 6080 nM; in test [5] (setting [8]), 6560 nM.

In the case of LLLPSTDVNK, the dissociation constant Kd in test [1] (setting [7]) is 2920 nM; in test [2] (setting [7]) it was 37.8 nM; in test [3] (setting [7]) it was 41.1 nM; in test [4] (setting [7]), at least 70000 nM; in test [5] (setting [7]) it was 3020 nM.

Turning to LLNSMMNRDK, the Kd in test [1] (setting [7]) was at least 70200 nM; in test [2] (setting [7]), 1780 nM; in test [3] (setting [7]) it was 39.2 nM; in test [4] (setting [7]), at least 27500 nM; in test [5] (setting [7]), 690 nM.

Regarding LMNVITLVYK, the Kd in test [1] (setting [8]) turned out to be 748 nM; in test [2] (setting [8]), 23.7 nM; in test [3] (setting [8]), 10.6 nM; in test [4] (setting [8]), 5640 nM; in test [5] (setting [8]), 742 nM.

Consider LSARNKLFK, for which the Kd in test [1] (setting [7]) came out at 14.9 nM; in test [2] (setting [7]), 0.532 nM; in test [3] (setting [7]), 2.21 nM; in test [4] (setting [7]) it was 16100 nM; in test [5] (setting [7]), 168 nM.

For LSSIKSKSRR, the Kd was 163 nM in test [1] (setting [7]); 2030 nM in test [2] (setting [7]); at least 32100 nM in test [3] (setting [7]); 16500 nM in test [4] (setting [7]); 644 nM in test [5] (setting [7]).

Consider LTMQRLLANH, for which the Kd amounted to 1610 nM in test [1] (setting [9]); 1850 nM in test [2] (setting [9]); 876 nM in test [3] (setting [9]); 8440 nM in test [4] (setting [9]); 1860 nM in test [5] (setting [9]).

As to MATMLEYVRY, the Kd in test [1] (setting [7]) worked out at 116 nM; in test [2] (setting [7]), 21.8 nM; in test [3] (setting [7]) it was 588 nM; in test [4] (setting [7]) it was 13500 nM; in test [5] (setting [7]) it was 1620 nM.

In the case of MVNHSTYYV, the Kd came out at 94.8 nM in test [1] (setting [10]); 590 nM in test [2] (setting [10]); 94.7 nM in test [3] (setting [10]); 810 nM in test [4] (setting [10]); 10.3 nM in test [5] (setting [10]).

Turning to NAISSRVDRY, the Kd in test [1] (setting [7]) is 10700 nM; in test [2] (setting [7]), 18000 nM; in test [3] (setting [7]) it was at least 42600 nM; in test [4] (setting [7]), at least 70000 nM; in test [5] (setting [7]), 11000 nM.

Regarding NFDYPFFRK, the Kd in test [1] (setting [7]) was 393 nM; in test [2] (setting [7]), 191 nM; in test [3] (setting [7]), 9090 nM; in test [4] (setting [7]), 308 nM; in test [5] (setting [7]) it was 90.2 nM.

On to NFEALEATK, for which the Kd in test [1] (setting [7]) turned out to be 704 nM; in test [2] (setting [7]), 84.5 nM; in test [3] (setting [7]), 4210 nM; in test [4] (setting [7]), 1060 nM; in test [5] (setting [7]), 6740 nM.

On to NFGTIILNK, for which the Kd was found to be 508 nM in test [1] (setting [7]); 1090 nM in test [2] (setting [7]); 1350 nM in test [3] (setting [7]); 1540 nM in test [4] (setting [7]); 1270 nM in test [5] (setting [7]).

In the case of NIADAARHY, the Kd turned out to be 469 nM in test [1] (setting [7]); 11300 nM in test [2] (setting [7]); 6720 nM in test [3] (setting [7]); 7730 nM in test [4] (setting [7]); 5040 nM in test [5] (setting [7]).

Consider NLEMIDERK, for which the Kd in test [1] (setting [7]) was 49.4 nM; in test [2] (setting [7]), 1110 nM; in test [3] (setting [7]), at least 70000 nM; in test [4] (setting [7]), at least 77700 nM; in test [5] (setting [7]), 9460 nM.

Consider NSFIISTLNK, for which the Kd amounted to 19.2 nM in test [1] (setting [7]); 0.447 nM in test [2] (setting [7]); 416 nM in test [3] (setting [7]); 4460 nM in test [4] (setting [7]); 648 nM in test [5] (setting [7]).

Regarding PIFSDLLKY, the Kd in test [1] (setting [7]) was at least 36900 nM; in test [2] (setting [7]), 6540 nM; in test [3] (setting [7]) it was at least 29500 nM; in test [4] (setting [7]), at least 77700 nM; in test [5] (setting [7]), at least 56900 nM.

For the sequence PISELSRLR, the Kd is 679 nM in test [1] (setting [7]); 5400 nM in test [2] (setting [7]); at least 78000 nM in test [3] (setting [7]); 919 nM in test [4] (setting [7]); 484 nM in test [5] (setting [7]).

For the sequence PSAEDNYLAK, the Kd in test [1] (setting [7]) was 5710 nM; in test [2] (setting [7]) it was 8.64 nM; in test [3] (setting [7]), at least 32200 nM; in test [4] (setting [7]), 4120 nM; in test [5] (setting [7]) it was at least 20300 nM.
